In patent US5908761, “Galectin-8 and galectin-8-like proteins and DNA molecules coding therefor” (Yeda Research and Development Co. Ltd., dated 1999):

Target: the molecule itself
Assay: gel filtration over Superdex-200 HR FPLC column (self-association)
Description: Approximately 100 μg protein was loaded onto Superdex-200 HR (Pharmacia) FPLC column equilibrated with buffer A (PBS, 4 mM β-mercaptoethanol, 2 mM EDTA), and run for 60 min at 0.5 ml/min. O.D. was measured at 215 nm, and the column profile was obtained by running separately standard marks.
The primary structure of galectin-8 resembles that of galectin-4, namely, two homologous (38% identity) carbohydrate-binding regions (CRDs) linked by a short ≈30-amino acids linking peptide. This unique architecture is shared so far only by two galectins: rat galectin-4 (12) and its *C. elegans* homologue (13). Other galectin types, that contain a single CRD, exist and function as non-covalent dimers, which provides them with the potential to aggregate or agglutinate glycoconjugates. Since galectin-4 exists as a monomer, experiments were carried out to determine whether galectin-8 exists as a monomer or a dimer. […] Hepatic galectin-8 (FIG. 6) has a similar mobility on SDS-PAGE as its recombinant counterpart (FIG. 5).

B1: tag-free recombinant galectin-8 (other)
chain: MLSLSNLQNIIYNPTIPYVSTITEQLKPGSLIVIRGHVPKDSERFQVDFQHGNSLKPRADVAFHFNPRFKRSNCIVCNTLTNEKWGWEEITHDMPFRKEKSFEIVIMVLKNKFHVAVNGKHILLYAHRINPEKIDTLGIFGKVNIHSIGFRFSSDLQSMETSTLGLTQISKENIQKSGKLHLSLPFEARLNASMGPGRTVVVKGEVNTNATSFNVDLVAGRSRDIALHLNPRLNVKAFVRNSFLQDAWGEEERNITCFPFSSGMYFEMIIYCDVREFKVAVNGVHSLEYKHRFKDLSSIDTLAVDGDIRLLDVRSW
binding result: no binding
